{
  "source": "paper PMC6135047",
  "data": [
    {"target": "His-ToxR (Vibrio parahaemolyticus RIMD 2210633?) (UniProt Q05938)", "sequence (Q05938 1-176)": "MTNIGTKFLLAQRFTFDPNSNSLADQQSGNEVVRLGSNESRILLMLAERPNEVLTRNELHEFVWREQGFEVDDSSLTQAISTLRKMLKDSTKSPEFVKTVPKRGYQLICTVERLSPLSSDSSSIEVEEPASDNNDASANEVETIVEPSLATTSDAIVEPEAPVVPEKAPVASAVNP", "test": "DNase I footprinting", "values": [
      {"sequence": "CAGAGTGACCCAGAGCCGTTTTGATGCTGTTATTTTTCATCATTCGGCGCGATTAATATGCTAAAGATGGTCGGATTTTTTTCGTTTTAAGACGTTTGAAAACAACAAAGCTCAGCAATGTGCTGAGCTTTGTGTTCGATTGATTTGGCGGTGATGCCCTACTCTGGTG (double strand) [VP1687 footprint probe]", "binding": "binds"},
      {"sequence": "CAGATTGCTGAATATCGGTGATGTATGAGAAATCGTTCAATGTAAAAAATATGCGCAATGATTGATGCTGGGAGAATAGAAAGGATGAGGTGGTATTTATAGTGAATATTGGTCGGGAGTTTTTAGAAAACTGAAAACGCCCTAAAAAAACACGTCTGATTTTGACAGCCTGATAAAAACGCACTTCATATAATTCGCTTGTATTGTACGAAAGGAGTGCAAGTGAATGAGTATTATCAAT (double strand) [VP1667 (vopN) footprint probe]", "binding": "binds"},
      {"sequence": "TTTCAGGGACGACTTTGTGATTTAGCCCCATGAAATCACCACACTAAGATGTCATTTAACATGTGGCTGACAAATGTAAATTCAAGGTCAATATTGCTAAAAACGGTGTTTTTTTAGAAAAATTTAATTATCCTACCCCCCTAAAAGCATCTAAAACGTCGCGTATCTCCCATGCGCAAACGTAATTTTGTGATATAAATCACCATAATTACAACATCATCCATCTAAGAAGAACTAA (double strand) [toxR footprint probe]", "binding": "binds"}
    ]}
  ]
}
